Data on one molecule can be found in PMC4643364 (Cancer cell, 2015).

For this assay, the target named is T1, EphB4 labelled with NT-647 dye (UniProt P54760 16-539, NT-647 dye through primary amide coupling).
T1 sequence (looked up): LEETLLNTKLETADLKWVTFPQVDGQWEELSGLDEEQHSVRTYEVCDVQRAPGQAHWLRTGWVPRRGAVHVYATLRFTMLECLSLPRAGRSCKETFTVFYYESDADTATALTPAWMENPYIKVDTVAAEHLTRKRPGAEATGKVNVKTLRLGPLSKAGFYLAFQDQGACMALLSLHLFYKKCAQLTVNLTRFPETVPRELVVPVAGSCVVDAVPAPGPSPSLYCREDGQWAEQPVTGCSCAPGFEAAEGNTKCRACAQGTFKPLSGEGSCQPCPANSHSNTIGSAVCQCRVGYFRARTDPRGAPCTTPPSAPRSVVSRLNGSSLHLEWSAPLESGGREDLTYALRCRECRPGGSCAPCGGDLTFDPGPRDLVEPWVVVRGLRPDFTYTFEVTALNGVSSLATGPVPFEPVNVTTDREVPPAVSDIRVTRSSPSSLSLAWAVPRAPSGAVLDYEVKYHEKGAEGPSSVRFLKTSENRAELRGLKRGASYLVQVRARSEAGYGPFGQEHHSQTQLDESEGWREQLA
The assay can be described thus: MST.

B1: EphrinB2/Fc, purified recombinant protein (Fc fusion, UniProt P52799 28-229, looked up)
chain: IVLEPIYWNSSNSKFLPGQGLVLYPQIGDKLDIICPKVDSKTVGQYEYYKVYMVDKDQADRCTIKKENTPLLNCAKPDQDIKFTIKFQEFSPNLWGLEFQKNKDYYIISTSNGSLEGLDNQEGGVCQTRAMKILMKVGQDASSAGSTRNKDPTRRPELEAGTNGRSSTTSPFVKPNPGSSTDGNSAGHSGNNILGSEVALFA
In the case of B1, binding was characterised by a dissociation constant (Kd) of 140 nM.
